From patent US20230372448A1, “THERAPEUTIC USE OF LONG-ACTING CONJUGATE OF TRIPLE AGONIST ACTING ON ALL OF GLUCAGON, GLP-1 AND GIP RECEPTORS AGAINST MULTIPLE SCLEROSIS” (HANMI PHARM. CO. ,LTD., priority 2020, published 2023)
Positions of bridges follow the written chain, without caps; N, C: chain ends. Non-standard residues stand in square brackets, D forms with d. No end group written: not given here. *: point of attachment. Acetyl(2-(4-imidazolyl)) = O=C(Cc1c[nH]cn1)*; Aib = CC(C)(N)C(=O)O

Legend:
Test in all cases: cell-based or functional assay
[1] = target: human GLP-1 receptor (human, UniProt P43220 24-463)
[2] = target: human GCG receptor (human, UniProt P47871 26-477)
human GCG receptor, sequence (P47871 26-477): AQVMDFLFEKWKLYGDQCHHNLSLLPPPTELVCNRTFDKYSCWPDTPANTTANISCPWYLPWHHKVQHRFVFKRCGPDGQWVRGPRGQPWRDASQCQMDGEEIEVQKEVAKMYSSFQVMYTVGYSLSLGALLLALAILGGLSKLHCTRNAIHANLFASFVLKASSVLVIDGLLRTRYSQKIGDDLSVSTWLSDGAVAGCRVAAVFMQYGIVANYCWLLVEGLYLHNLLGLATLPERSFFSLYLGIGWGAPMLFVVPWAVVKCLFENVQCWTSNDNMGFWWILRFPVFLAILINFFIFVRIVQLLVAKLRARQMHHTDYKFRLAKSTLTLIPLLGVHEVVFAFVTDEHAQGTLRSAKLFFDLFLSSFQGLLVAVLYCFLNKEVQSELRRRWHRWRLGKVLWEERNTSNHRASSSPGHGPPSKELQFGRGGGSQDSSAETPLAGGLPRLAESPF

[3] = target: T1, human GIP receptor (human, UniProt P48546 22-466)
T1 sequence (looked up): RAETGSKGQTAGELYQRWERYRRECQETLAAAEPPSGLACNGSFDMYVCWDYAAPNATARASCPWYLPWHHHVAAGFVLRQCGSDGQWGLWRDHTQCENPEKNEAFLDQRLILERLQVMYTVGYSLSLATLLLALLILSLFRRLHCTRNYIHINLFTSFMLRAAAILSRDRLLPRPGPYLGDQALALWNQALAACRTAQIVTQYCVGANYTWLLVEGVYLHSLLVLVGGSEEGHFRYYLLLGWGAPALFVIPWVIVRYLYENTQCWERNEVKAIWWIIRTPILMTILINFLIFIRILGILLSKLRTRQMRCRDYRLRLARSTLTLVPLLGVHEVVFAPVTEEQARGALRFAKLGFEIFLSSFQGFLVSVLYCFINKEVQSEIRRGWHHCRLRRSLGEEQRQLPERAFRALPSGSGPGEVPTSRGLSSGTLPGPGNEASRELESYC

| Binder | In vitro activity (%) compared with native peptide: vs GLP-1 [1] [%] | In vitro activity (%) compared with native peptide: vs Glucagon [2] [%] | In vitro activity (%) compared with native peptide: vs GIP [3] [%] |
| --- | --- | --- | --- |
| Y[Aib]QGTFTSDYSKYLDEKRAKDFVQWLLDHHPSSGQPPPSC (bridge 16-20; not fully specified) [triple agonist of SEQ ID NO: 76] | 10.3 | 47.6 | 11.7 |
| {Acetyl(2-(4-imidazolyl))}-[Aib]QGTFTSDYSKYLDEKRQKEFVQWLLDTC (bridge 15-19; not fully specified) [triple agonist of SEQ ID NO: 82] | 9.5 | 1.1 | < 0.1 |
| Y[Aib]QGTFTSDCSKYLDERAAKDFVQWLLDHHPSSGQPPPS (bridge 16-20; not fully specified) [triple agonist of SEQ ID NO: 72] | 11.5 | 1 | 1.6 |
| Y[Aib]QGTFTSDYSKYLDEKAAKDFVQWLLDHHPSSGQPPPSC (bridge 16-20; not fully specified) [triple agonist of SEQ ID NO: 77] | 38.7 | 12.2 | 35.5 |
| H[Aib]QGTFTSDVSKYLDGQAAQEFVAWLLKGC (not fully specified) [triple agonist of SEQ ID NO: 8] | 14.2 | 0.1 | < 0.1 |
| Y[Aib]QGTFTSDYSKYLDECRAKDFVQWLLDHHPSSGQPPPS (bridge 16-20; not fully specified) [triple agonist of SEQ ID NO: 66] | 15.8 | 172 | 17.2 |
| Y[Aib]QGTFTSDYSKYLDEKAAKEFVQWLLDHHPSSGQPPPSC (bridge 16-20; not fully specified) [triple agonist of SEQ ID NO: 75] | 35.1 | 8.5 | 18 |
| H[Aib]QGTFTSDVSKYLDGQAAQEFVAWLLAGC (not fully specified) [triple agonist of SEQ ID NO: 9] | 32.1 | 0.13 | < 0.1 |
| Y[Aib]QGTFTSDYSKYLDECAAKDFVQWLLDHHPSSGQPPPS (bridge 16-20) [triple agonist of SEQ ID NO: 67] | 28.5 | 46.2 | 39.8 |
| {Acetyl(2-(4-imidazolyl))}-[Aib]QGTFTSDYSKYLDECRAKEFVQWLLDHHPSSGQPPPS (bridge 15-19; not fully specified) [triple agonist of SEQ ID NO: 73] | 22.6 | 5.4 | 3 |
| Y[Aib]QGTFTSDYSKCLDEKRAKDFVQWLLDHHPSSGQPPPS (bridge 16-20; not fully specified) [triple agonist of SEQ ID NO: 70] | 15.1 | 71.3 | 64.4 |
| H[Aib]QGTFTSDYSKCLDEKRAKEFVQWLLDHHPSSGQPPPS (bridge 16-20; not fully specified) [triple agonist of SEQ ID NO: 65] | 95.4 | 25.2 | 11.6 |
| H[Aib]QGTFTSDVSKYLDGQAAKEFVAWLLKGC (not fully specified) [triple agonist of SEQ ID NO: 7] | 13.7 | < 0.1 | < 0.1 |
| {Acetyl(2-(4-imidazolyl))}-[Aib]QGTFTSDKSKYLDERAAQDFVQWLLDGGPSSGAPPPS (not fully specified) [triple agonist of SEQ ID NO: 62] | 5.2 | < 0.1 | < 0.1 |
| H[Aib]EGTFTSDYSIAMDEIHQKDFVDWLLAEKC (bridge 16-20; not fully specified) [triple agonist of SEQ ID NO: 80] | 8.1 | 0 | 0.1 |
| {Acetyl(2-(4-imidazolyl))}-[Aib]QGTFTSDYSKYLDEKRQKEFVQWLLNTC (bridge 15-19; not fully specified) [triple agonist of SEQ ID NO: 81] | 7.8 | 0.3 | < 0.1 |
| Y[Aib]QGTFTSDYSKCLDERAAKEFVQWLLDHHPSSGQPPPS (bridge 16-20; not fully specified) [triple agonist of SEQ ID NO: 69] | 24.3 | 9.6 | 62.8 |
| {Acetyl(2-(4-imidazolyl))}-[Aib]QGTFTSDYSKCLDEKRAKEFVQWLLDHHPSSGQPPPS (bridge 15-19; not fully specified) [triple agonist of SEQ ID NO: 74] | 12.9 | 0.9 | 1 |
| {Acetyl(2-(4-imidazolyl))}-[Aib]QGTFTSDYSIAMDEIACKDFVNWLLNTK (bridge 15-19; not fully specified) [triple agonist of SEQ ID NO: 61] | 59.8 | < 0.1 | 2.8 |
| H[Aib]EGTFTSDYSIAMDEIHQKDFVNWLLAQKC (bridge 16-20; not fully specified) [triple agonist of SEQ ID NO: 79] | 41.5 | 4.9 | 1.4 |
| H[Aib]QGTFTSDYSKYLDEKRQKEFVQWLLDTKC (bridge 16-20; not fully specified) [triple agonist of SEQ ID NO: 78] | 51 | 14 | 0.12 |
| Y[Aib]QGTFTSDYSKCLDEKAAKEFVQWLLDHHPSSGQPPPS (bridge 16-20; not fully specified) [triple agonist of SEQ ID NO: 68] | 27.9 | 8.8 | 107 |
| Y[Aib]QGTFTSDYSKYLDERACKDFVQWLLDHHPSSGQPPPS (bridge 16-20; not fully specified) [triple agonist of SEQ ID NO: 71] | 90.1 | 12.7 | 94.7 |
| Y[Aib]QGTFTSDYSKYLDECAAKEFVQWLLDHHPSSGQPPPS (bridge 16-20; not fully specified) [triple agonist of SEQ ID NO: 64] | 64.6 | 60.1 | 92.9 |
| {Acetyl(2-(4-imidazolyl))}-[Aib]EGTFTSDYSIAMDEIHQKDFVDWLLAEC (bridge 15-19; not fully specified) [triple agonist of SEQ ID NO: 84] | 4.2 | < 0.1 | < 0.1 |
| {Acetyl(2-(4-imidazolyl))}-[Aib]QGTFTSDCSKYLDERAAQDFVQWLLDGGPSSGAPPPS (not fully specified) [triple agonist of SEQ ID NO: 63] | 15.3 | < 0.1 | < 0.1 |
